According to US5767250, “Complexes comprising truncated CMV gH polypeptides and escort proteins” (Chiron Corporation, dated 1998):

Target: basic FGF (human, UniProt P09038, radioiodinated (125I) in the soluble binding assay and the radioreceptor assay)
Test: soluble binding assay: EC-FGF receptor on concanavalin A coated wells, 125I-bFGF with increasing bFGF, Scatchard analysis

B1: EC-FGF receptor, soluble extracellular domain of the human FGF receptor flg5 expressed in a baculovirus system (receptor)
chain: RPSPTLPEQAQPWGAPVEVESFLVHPGDLLQLRCRLRDDVQSINWLRDGVQLAESNRTRITGEEVEVQDSVPADSGLYACVTSSPSGSDTTYFSVNVSDALPSSEDDDDDDDSSSEEKETDNTKPNPVAPYWTSPEKMEKKLHAVPAAKTVKFKCPSSGTPNPTLRWLKNGKEFKPDHRIGGYKVRYATWSIIMDSVVPSDKGNYTCIVENEYGSINHTYQLDVVERSPHRPILQAGLPANKTVALGSNVEFMCKVYSDPQPHIQWLKHIEVNGSKIGPDNLPYVQILKTAGVNTTDKEMEVLHLRNVSFEDAGEYTCLAGNSIGLSHHSAWLTVLEALEERPAVMTSPLYLE
Work on B1 yielded a Kd of under 5 nM.
